Test results reported in patent US20190352390A1.

Biological target: IL-37 expressed by splenocytes of IL-37 transgenic (IL-37tg) mice (human), Q9NZH6
Assay: cell-based or functional assay

IL-37 expressed by splenocytes of IL-37 transgenic (IL-37tg) mice (human), Q9NZH6, sequence (Q9NZH6 whole entry): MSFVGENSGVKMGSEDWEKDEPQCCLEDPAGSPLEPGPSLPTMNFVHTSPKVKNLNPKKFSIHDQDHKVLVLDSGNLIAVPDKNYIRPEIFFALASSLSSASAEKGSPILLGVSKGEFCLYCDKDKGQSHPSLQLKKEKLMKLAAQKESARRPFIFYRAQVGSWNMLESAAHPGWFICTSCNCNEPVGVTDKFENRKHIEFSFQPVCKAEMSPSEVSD

Row | IL-6 abundance in supernatant of LPS-stimulated IL-37tg mouse splenocytes (ELISA) [%] | Binder
1 | < 40 | Antibody RF3 (antibody, V domains shown) VL: DVVMTQTPLSLPVSLGDQASISCRSSQSLVHSNGNTYLHWYLQKPGQSPKLLIYIVSNRFSGVPDRFGGSGSGTDFTLKISRVEAEDLGVYFCSQSTHIPYTFGGGTKLEMK VH: QVQLQQPGAELVRPGASVKLSCKASGYTFTNYWMNWWKQRPGQGLEWIGMIDPSDSETHYNQVFKDKATLTVDISSTTAYMHLSSLTSEDSAVYYCARDFGWGQGTLVTVSA
2 | < 40 | Antibody RF1 (antibody, V domains shown) VL: DVVMTQTPLSLPVSLGDQASMSCRSSQSLVHSNGDSYLHWYLQKPGQSPKLLIYKVSNRLSGVPDRFSGSGSGTDFTLKISRVEAEDLGIYFCSQSTHVPYTFGGGTKLEIK VH: QVQLQQPGAELVKPGASVKMSCKASGYTFTNYWLHWVMQRPGQGLEWIGMIDPSDSFTTYNQKFKGKATLTVDTSSSTAFMQLSSLTSEDSAVYYCTTVDHWGRGTTLTVSS
